Data reported in US20220127354A1 (Amgen, published 2022).
Numbering of substitutions follows the chain as printed. Names and notes keep the numbering of the source.

T1: muCDH19(44-323)::raCDH19(324-327)::muCDH19(328-770) with leader and FLAG (construct X) (rat/mouse chimera)
T1 construct: leader (1-43 of the entry) left out
T1 chain: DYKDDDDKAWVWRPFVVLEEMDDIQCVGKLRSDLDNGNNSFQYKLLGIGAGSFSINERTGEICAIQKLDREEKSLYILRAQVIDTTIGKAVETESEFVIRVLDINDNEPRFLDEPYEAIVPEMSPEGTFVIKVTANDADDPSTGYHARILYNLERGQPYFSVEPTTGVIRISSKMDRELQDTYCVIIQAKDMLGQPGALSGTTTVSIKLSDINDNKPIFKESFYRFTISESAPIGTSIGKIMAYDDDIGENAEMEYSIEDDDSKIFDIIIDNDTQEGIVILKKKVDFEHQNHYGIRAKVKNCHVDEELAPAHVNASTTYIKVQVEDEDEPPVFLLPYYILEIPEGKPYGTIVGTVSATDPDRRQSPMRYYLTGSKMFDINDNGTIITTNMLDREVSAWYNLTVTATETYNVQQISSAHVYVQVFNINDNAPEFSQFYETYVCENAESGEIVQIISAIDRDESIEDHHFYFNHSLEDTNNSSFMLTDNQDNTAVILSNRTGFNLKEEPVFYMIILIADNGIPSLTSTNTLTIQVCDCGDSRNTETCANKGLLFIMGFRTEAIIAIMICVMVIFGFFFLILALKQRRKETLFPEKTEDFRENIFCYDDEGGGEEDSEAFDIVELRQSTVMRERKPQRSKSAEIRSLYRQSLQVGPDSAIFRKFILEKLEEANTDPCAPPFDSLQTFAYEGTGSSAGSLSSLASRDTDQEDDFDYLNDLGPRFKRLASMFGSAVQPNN

T2: Cyno Cadherin-19 (cynomologous monkey (Macaca …, UniProt Q9H159 44-772 (human entry)))
T2 construct: also called cynomologous monkey CDH-19
T2 chain: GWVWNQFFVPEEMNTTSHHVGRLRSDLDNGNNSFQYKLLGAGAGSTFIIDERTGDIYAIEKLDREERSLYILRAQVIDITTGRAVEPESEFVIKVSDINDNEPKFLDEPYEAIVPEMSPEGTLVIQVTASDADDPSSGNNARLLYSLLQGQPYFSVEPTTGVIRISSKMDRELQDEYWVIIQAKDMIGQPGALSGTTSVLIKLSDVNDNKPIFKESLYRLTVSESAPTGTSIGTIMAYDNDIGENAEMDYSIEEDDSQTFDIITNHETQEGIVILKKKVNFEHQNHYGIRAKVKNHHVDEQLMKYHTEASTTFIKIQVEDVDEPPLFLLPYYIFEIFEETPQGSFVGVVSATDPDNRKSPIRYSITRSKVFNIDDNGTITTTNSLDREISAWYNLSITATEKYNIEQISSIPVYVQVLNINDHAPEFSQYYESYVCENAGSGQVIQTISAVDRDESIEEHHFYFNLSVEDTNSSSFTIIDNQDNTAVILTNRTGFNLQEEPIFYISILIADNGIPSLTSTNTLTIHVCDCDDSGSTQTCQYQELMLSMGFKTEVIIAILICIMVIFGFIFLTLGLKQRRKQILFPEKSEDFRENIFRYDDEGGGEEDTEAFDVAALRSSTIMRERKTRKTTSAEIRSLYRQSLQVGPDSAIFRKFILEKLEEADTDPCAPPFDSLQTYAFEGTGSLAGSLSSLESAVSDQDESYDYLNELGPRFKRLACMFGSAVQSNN

T3: rhCDH19(1-43)::FLAG::rhCDH19(44-141)::raCDH19(140-247)::rhCDH19(250-772) (construct V, ra EC2) (rhesus macaque/rat chimera, UniProt Q9H159 44-772 (human entry))
T3 construct: leader (1-43 of the entry) left out
T3 chain: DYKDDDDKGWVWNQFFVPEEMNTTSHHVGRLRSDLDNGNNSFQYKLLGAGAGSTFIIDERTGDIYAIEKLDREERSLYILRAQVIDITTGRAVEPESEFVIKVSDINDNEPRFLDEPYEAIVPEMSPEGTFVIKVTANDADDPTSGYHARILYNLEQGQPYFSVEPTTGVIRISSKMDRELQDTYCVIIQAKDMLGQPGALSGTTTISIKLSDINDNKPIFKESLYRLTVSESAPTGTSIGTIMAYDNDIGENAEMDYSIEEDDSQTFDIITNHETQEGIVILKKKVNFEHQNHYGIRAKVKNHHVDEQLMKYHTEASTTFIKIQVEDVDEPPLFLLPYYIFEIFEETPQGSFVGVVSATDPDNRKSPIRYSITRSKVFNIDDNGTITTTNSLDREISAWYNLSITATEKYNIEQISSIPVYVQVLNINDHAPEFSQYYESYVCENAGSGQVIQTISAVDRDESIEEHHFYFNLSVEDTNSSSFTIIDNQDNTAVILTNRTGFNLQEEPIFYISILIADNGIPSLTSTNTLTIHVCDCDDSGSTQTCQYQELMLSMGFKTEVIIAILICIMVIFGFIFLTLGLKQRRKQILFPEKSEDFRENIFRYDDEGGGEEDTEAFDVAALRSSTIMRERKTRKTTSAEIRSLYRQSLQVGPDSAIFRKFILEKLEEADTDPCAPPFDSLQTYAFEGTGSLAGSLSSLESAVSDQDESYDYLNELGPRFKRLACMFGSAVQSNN

B1: hu anti-<huCDH19> 4B10 (Ab ID 13590) (antibody, V domains shown)
VH: QVQLVESGGGVVQPGRSLRLSCAASGFTFSSYDMHWVRQAPGKGLEWVAVISYDGTNEYYADSVKGRFTISRDTSKNTLYLQMNSLRAEDTAVYYCARERYFDWSFDYWGQGTLVSVSS
VL: EIVLTQSPGTLSLSPGERATLSCRASQSVSNTYLAWYHQRPGQAPRLLIYGASSRATGIPDRFSGSGSGTDFALTISSLEPEDFAVYYCQQYSNSWTFGQGTKVEIKR
notes: huIgG1z / huKLC; Bin 4
B2: anti-CDH19 antibody 4A2 (Ab ID 13592) (antibody, human IgG1, kappa, V domains shown)
VH: QVQLQESGPGLVKPSQTLSLTCTVSGGSISSSGYYWSWIRQHPGKGLEWIGYIYYTGSAYYNPSLKSRVTISVDTSKNQFSLKLSSVTAADTAVYYCARDGSSGWYFQYWGQGTLVTVSS
VL: EIVLTQSPGTLSLSPGERATLSCRASRNISSSYLAWYQQKPGQAPRLLIYGPSSRATGIPDRFSGSGSGTDFTLTISRLEPEDFTVYYCQQYGSSFTFGPGTKVDIKR
notes: Bin 4
B3: hu anti-<huCDH19> 26D1.1 (Ab ID 13882) (antibody, human IgG1, lambda, V domains shown)
VH: QVQLVQSGAEVKKPGASVKVSCKASRYTFTSYYMSWVRQAPGQGLEWMGIIHPSGGDTTYAQKFQGRVTMTGDTSTSTVYMELSSLRSEDTAVYYCARGGIKLWLHFDYWGQGTLVTVSS
VL: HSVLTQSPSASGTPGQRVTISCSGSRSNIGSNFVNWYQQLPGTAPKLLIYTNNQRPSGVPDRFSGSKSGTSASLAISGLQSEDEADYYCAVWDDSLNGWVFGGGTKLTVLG
notes: huIgG1z / huLLC-C2; Bin 2
B4: hu anti-<huCDH19> 25F8.1 (1-469)(F90Y) VH::huIgG1z + 25F8.1 (1-235)(K45Q,S102A,D111E) VL::huLLC-C2 (Ab ID 14096) (antibody, V domains shown)
VH: B3 VH with R26G, M34I, S35H, H52N, D57S, T59R, G72R, K102Q
VL: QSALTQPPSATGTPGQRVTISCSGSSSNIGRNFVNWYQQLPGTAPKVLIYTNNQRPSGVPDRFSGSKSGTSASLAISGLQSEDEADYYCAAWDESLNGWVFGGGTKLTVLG
notes: Engineered variant of 25F8; the entries already carry the changes; Bin 2
B5: anti-CDH19 antibody 2G6 (Ab ID 13588) (antibody, human IgG1, lambda, V domains shown)
VH: QVQLVESGGGVVQPGRSLRLSCAASGFTFSSYGMHWVRQAPGKGLEWVAFIWYDGSNKYYADSVKDRFTISRDNSKNTLYLQMKSLRAEDTAVYYCARRAGIIGTIGYYYGMDVWGQGTTVTVSS
VL: SYELTQPPSVSVSPGQTASITCSGDRLGEKYTCWYQQRPGQSPLLVIYQDTKRPSGIPERFSGSNSGNTATLTISGTQAMDEADYYCQAWDSSTVVFGGGTKLTVLG
notes: Bin 4
B6: hu anti-<huCDH19> 4A9 (Ab ID 13589) (antibody, human IgG1, lambda, V domains shown)
VH: QVQLQESGPGLVKPSETLSLTCTVSGGSISGYYWSWIRQPPGKGLEWFAYFSYSGSTNYNPSLKSRVTLSVDTSKNQFSLKLSSVTAADTAVYYCARNWAFHFDFWGQGTLVTVSS
VL: QSVLTQPPSVSGAPGQRVTISCTGSSSNIGTGYAVHWYQQFPGTAPKLLIYGNNNRPSGVPDRFSGSKSGTSASLAITGLQAEDEADYYCQSYDSRLSGWVFGGGTKLTVLG
notes: huIgG1z / huLLC-C1; Bin 1

What was measured:
[1] = biological target: T1, muCDH19(44-323)::raCDH19(324-327)::muCDH …; experiment: flow cytometry, transfected 293T cells, 2 mM CaCl2
Method: (§1) The following binding assay was completed in presence of 2 mM CaCl₂). […] Cells were then washed one time and the amount of cell associated Alexa647-labelled Ab was quantitated by flow cytometry. The experiments included mock transfected controls.

Cyno Cadherin-19 = biological target: T2, Cyno Cadherin-19; experiment: FACS, recombinant cynomologous CDH-19
[2] = biological target: T4, muCDH19(44-247)::huCDH19(250-364)::muCDH19(363-770) with Flag tag (construct F, Hu EC3) (human/mouse chimera); experiment: flow cytometry, transfected 293T cells
T4 construct: leader left out; the entry starts at residue 44; also called C137911
From the text: (§2) The experiment included assaying the anti-CDH19 antibodies against mouse Cadherin19 to determine suitability for binning on these human/mouse chimeras.

[3] = biological target: T5, muCDH19(44-139)::huCDH19(142-364)::muCDH19(363-770) with Flag tag (construct E, Hu EC2-3) (human/mouse chimera); experiment: flow cytometry, transfected 293T cells
T5 construct: leader left out; the entry starts at residue 44; also called C137847
From the text: as §2

[4] = biological target: T3, rhCDH19(1-43)::FLAG::rhCDH19(44-141)::ra …; experiment: flow cytometry, transfected 293T cells, 2 mM CaCl2
Method: as §1

Binder	binding result [1]	binding result (Cyno Cadherin-19)	binding result [2]	binding result [3]	binding result [4]
B1	binds	binds	binds	binds	
B2		binds			
B3		binds			no binding (tested: 5 ug/ml)
B4					no binding (tested: 5 ug/ml)
B5	binds	binds	binds	binds	
B6		binds			no binding (tested: 5 ug/ml)
